Results: US20150238626A1, “RECEPTOR LIGAND LINKED CYTOTOXIC MOLECULES” (ONTOCHEM GMBH, priority 2012, published 2015)

Experiments:
[1] = target: human Y2 receptor C-terminally fused to EYFP (human) (UniProt P49146)
[2] = target: human Y1 receptor C-terminally fused to EYFP (human) (UniProt P25929)
[3] = target: human Y2 receptor C-terminally fused to EYFP (human) (UniProt P49146); remark: listed apart in the source

Substance: NPY (ligand)
- EC50, functional CRE reporter gene assay [1]: 0.87 nM
- EC50, functional CRE reporter gene assay [2]: 0.77 nM
- EC50, functional IP3 second messenger assay [3]: 0.5 nM
